From the supplement of paper PMC9170038 come the findings set out here.

The test system of this data set is MS2 coat protein. Put plainly: apparent KD of MS2 coat protein; higher = weaker reporter binding. The settings on record: Eterna round: R107. The essentials: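 Binding of SNAP-549-labelled MS2 coat protein was measured on designed RNA switches transcribed on-chip from Illumina sequencing clusters. The protein rose in twofold steps from 0.7 or 1.5 nM to 3 µM, with 0.8–1.5 h per step early on and 10–20 min per step later, in 100 mM Tris-HCl pH 7.5, 80 mM KCl, 4 mM MgCl2, without or with constant ligand. Each design's apparent KD is the median of fits to its normalised cluster binding curves.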

[1] abbreviates: input ligand: theophylline 20 uM.
Setting [2] is: input ligand: tryptophan 2.4 mM.
The mark [3] stands for this setting: input ligand: theophylline 2 mM.

With “UCACGACGCAUGGAUACCAGCGACAUGAGGAUCACCCAUGUAUGAGGAUCAGCCAUGUUAUGCCCUUGGCAGCCACGAAGGUCAU [KNKMULLIN]”, the “apparent KD of MS2 coat protein” value by setting is: (input ligand: arginine 13.2 mM) 14.2 nM; under setting [1], 20.1 nM; under setting [2], 15.8 nM.

As to “UCAUGACAUGGGAAUAAAUAAGAAGGCGAAGGAGCGUGAAGAUUCACAGGUAGGUCGCGCAAAAUACAUGAGGAUCACCCAUGUU [JR_Nu_ExcArginiA_Sub032]”, the “apparent KD of MS2 coat protein” value by setting is: (input ligand: arginine 13.2 mM) 33 nM; (input ligand: none) 30.4 nM; under setting [1], 53.2 nM; under setting [3], 43.9 nM; under setting [2], 37.3 nM.

As to “UCAUUUGAGUGAGAUGUAAGGUAUCAUGAUACCAGUAGAUAAUUAUACCCUUGGCAGCAUGACAUGAGGAUCACCCAUGUACAUG [Ad]”, the “apparent KD of MS2 coat protein” value (input ligand: arginine 13.2 mM) amounted to 9.28 nM, the “apparent KD of MS2 coat protein” value under setting [1] turned out to be 11.1 nM and the “apparent KD of MS2 coat protein” value under setting [2] was 12.3 nM.

Turning to “UCCACACAUGAGGAUCACCCAUGUUGAGAUACCAGUAAACCAAAAUACCCUUGGCAGCUCCUACGCUCUUACAGCGGGAAUAUCC [theeternabot_sameState_MS2_Theo_A_46]”, the “apparent KD of MS2 coat protein” value came out at 14.3 nM (input ligand: arginine 13.2 mM), 19.5 nM under setting [1] and 14.9 nM under setting [2].

With “UCCCUACCGUCGGCCGCCACUGGGUCAUACAGUUCGUAACUACAUGAGGAUCACCCAUGUGCAGCCAGGACCGGGACGCGCCUUG [theeternabot_sameState_MS2_Trp_B_16]”, the “apparent KD of MS2 coat protein” value worked out at 30.2 nM (input ligand: arginine 13.2 mM), 153 nM under setting [1] and 148 nM under setting [3].

Take “UCCUGCAGAGCGGCCGCCACUGUGUUGCGUGAGGAUGACCCAACAUGAGGAUCACCCAUGUUGUUUAGGACCGGGCUUGCCUCGA [xcmulliny]”: the “apparent KD of MS2 coat protein” value stood at 12 nM (input ligand: arginine 13.2 mM), 17.2 nM under setting [1] and 15.5 nM under setting [3].

On to “UCGGGCAGAGCGGCCGCCACUGUUUGGCAUGCGGAUGACGGAACAUGAGGAUCACCCAUGUUGAUUAGGACCGGGCUUGCGGAGA [eefullin]”, for which the “apparent KD of MS2 coat protein” value was found to be 11.6 nM (input ligand: arginine 13.2 mM); 18.9 nM (input ligand: none); 42.3 nM under setting [1]; 25.1 nM under setting [3]; 37 nM under setting [2].

With “UCGGGCAGAGCGGCCGCCACUGUUUGGCGUGCGGAUGACGGAACAUGAGGAUCACCCAUGUUGUUUAGGACCGGGCUUGCGGCGU [ipimullin]”, the “apparent KD of MS2 coat protein” value runs as follows: (input ligand: arginine 13.2 mM) 12.1 nM; (input ligand: none) 12.7 nM; under setting [1], 16.7 nM; under setting [3], 14 nM; under setting [2], 12.1 nM.

For “UCGUAGGUAGGAAGGAGCGCAUACUUCACAUGAGGAUCACCCAUGUCGAGACGUGAGUCAGUGCAGGUAGGUCGCCUAGCUAUGA [Same State - Arginine B (Freestyle 25)]”, the “apparent KD of MS2 coat protein” value turned out to be 18.2 nM (input ligand: arginine 13.2 mM); 26 nM (input ligand: none); 35.7 nM under setting [1]; 28.3 nM under setting [3]; 18.7 nM under setting [2].

“UCGUAGGUAGGAAGGAGCGCAUACUUCACAUGAGGAUCACCCAUGUCGAGACGUGAGUCAGUGCAGGUAGGUCGCCUAGUUAUGA [Same State - Arginine B (Freestyle 24)]”: the “apparent KD of MS2 coat protein” value was 19.6 nM (input ligand: arginine 13.2 mM); 41.1 nM (input ligand: none); 36.2 nM under setting [1]; 40.2 nM under setting [3]; 29.2 nM under setting [2].

As to “UCGUCCUCCGCAAGGAGGAGGAGUUGCGAUACCAGCACGGUAACGUGCCCUUGGCAGCGCACAUGAGGAUCACCCAUGUGGUGUU [#1 Exclusion - Theophylline A Attempt #13 (HarryS)]”, the “apparent KD of MS2 coat protein” value is, setting by setting: (input ligand: arginine 13.2 mM) 59.3 nM; under setting [1], 425 nM; under setting [2], 188 nM.

Turning to “UCGUGUAUAUCGGAUACCAGUGAAAUCGAUACAUGAGGAUCACCCAUGUGAGUUGAUGUACACCCUUGGCAGCUGUAUAUAUCUA [snbullin]”, the “apparent KD of MS2 coat protein” value stood at 15 nM (input ligand: arginine 13.2 mM), 18.1 nM under setting [1] and 15.3 nM under setting [2].

Take “UCGUGUAUAUCGGAUACCAGUGAGAACGAUACAUGAGGAUCACCCAUGUGAGUUGAUGUACACCCUUGGCAGCUGUAUAUAUCUA [gghullin]”: the “apparent KD of MS2 coat protein” value (input ligand: arginine 13.2 mM) was found to be 18.9 nM, the “apparent KD of MS2 coat protein” value under setting [1] was found to be 27 nM and the “apparent KD of MS2 coat protein” value under setting [2] was determined as 20 nM.

Regarding “UCUACAUGAGGAUCACCCAUGUGCCAUGAUACCAGACAUGAAAAUGUCCCUUGGCAGCGUGGGUAGCGCAUCCGAAAGGAUGCGC [#08 SameState-TheophyllineA]”, the “apparent KD of MS2 coat protein” value stood at 1370 nM (input ligand: arginine 13.2 mM); 702 nM (input ligand: none); 240 nM under setting [1]; 1310 nM under setting [3]; 20.5 nM under setting [2].

In the case of “UCUCACAUGAGGAUCACCCAUGUGUGCGGUCGAGGACCGGUACGGCCGCCACUCGAAUCCUUCCGCGAGAAGAUUGUACGACGGC [theeternabot_sameState_MS2_Trp_A_38]”, the “apparent KD of MS2 coat protein” value (input ligand: arginine 13.2 mM) was 28.3 nM, the “apparent KD of MS2 coat protein” value under setting [1] is 74.4 nM and the “apparent KD of MS2 coat protein” value under setting [3] stood at 99.9 nM.

As for “UCUUUCUUUGUAGAUACCAGCAUGUUAAGUUUCUUUUGACAUGAGGAUCACCCAUGUACAUGCCCUUGGCAGCUACAUUUUCUUU [SSThB NP+V+V2 Same Structure]”, the “apparent KD of MS2 coat protein” value worked out at 15.6 nM (input ligand: arginine 13.2 mM), 16.3 nM under setting [1] and 15.4 nM under setting [2].

Take “UGACAUUGCUCAGAUACCAGACGUGAGGAUCACCCACGUGCCAACAAGUACAUAAUAAAUGUCCCUUGGCAGCUGAGCAAUGUCU [TheoBX 17 #MS2Left #Theo2 #AlternativeMS2]”: the “apparent KD of MS2 coat protein” value runs as follows: (input ligand: arginine 13.2 mM) 16.4 nM; (input ligand: none) 11.2 nM; under setting [1], 15.2 nM; under setting [3], 15.1 nM; under setting [2], 10.9 nM.

As to “UGAGUUAGACAAAAGUCUAGCUCUGGUGAAGGAGCGUCCGAAAGGACAGGUAGGUCGCACCACAUGAGCAUCAGCCAUGUUCCUU [ArgAS 23 #OpenEnded #AlternativeMS2]”, the “apparent KD of MS2 coat protein” value runs as follows: (input ligand: arginine 13.2 mM) 17.9 nM; (input ligand: none) 17.3 nM; under setting [1], 26.9 nM; under setting [3], 17.8 nM; under setting [2], 16.8 nM.

On to “UGAUACACGGGAAGGAGCGACAGGGAUAAGUCCGCACGGGCCGCACAUGAGGAUCACCCAUGUCAGGUAGGUCGCCCGUGGCGUG [Erxemarima]”, for which the “apparent KD of MS2 coat protein” value reads like this: (input ligand: arginine 13.2 mM) 13 nM; (input ligand: none) 13.5 nM; under setting [1], 19.6 nM; under setting [3], 16 nM; under setting [2], 12.9 nM.

As for “UGAUCCUGCAGGGAUACCAGCGCCGCUAGAUAACUAUGCACAUGAGGAUCACCCAUGUAACGCCCUUGGCAGCCCAACUAAAGGG [Same State Theophylline B GF21]”, the “apparent KD of MS2 coat protein” value stood at 28.9 nM (input ligand: arginine 13.2 mM); 39.9 nM (input ligand: none); 41 nM under setting [1]; 26.7 nM under setting [3]; 35.2 nM under setting [2].
